Test results as given in the RNAGym collection of RNA variant scans (doi:10.7554/elife.80360).

B1: HDV Ribozyme (parent)
chain: GGCCGGCAUGGUCCCAGCCUCCUCGCUGGCGCCGGCUGGGCAACAUUCCGAGGGGACCGUCCCCUCGGUAAUGGCGAAUGGGACCCA

Variants of: B1
Test: self-cleavage, relative activity (ratio to wild type); higher = more cleavage; co-transcriptional

In order of falling self-cleavage:
1. C14A C57U  1.23
2. C14A G81C  1.22
3. C14A G81U  1.15
4. C13U A51C  0.997
5. C14A G76C  0.969
6. C14A G81A  0.911
7. C14A C64G  0.892
8. C13U A51G  0.89
9. C14A A71U  0.852
10. C13U U60G  0.831
11. C13U U60C  0.831
12. C13U A87U  0.819
13. C13U C64A  0.807
14. C14A C48U  0.791
15. C14A G55C  0.767
16. C13U G59A  0.763
17. C14A C63A  0.755
18. C13U G54A  0.739
19. C13U C41G  0.739
20. C13U C15U  0.733
21. C14A C63U  0.731
22. C14A G55U  0.73
23. C14A C57G  0.72
24. C14A G76A  0.718
25. C14G A51C  0.712
26. C14A C58U  0.705
27. C13U G55A  0.702
28. C14A C49U  0.7
29. C13U C66U  0.698
30. C13U  0.683
31. C13U G53U  0.671
32. C13U C58A  0.665
33. C14A A70G  0.665
34. C14A C61U  0.656
35. C13U A87C  0.647
36. C14G A56C  0.646
37. C13U G52C  0.639
38. C13U A87G  0.634
39. C13U C66G  0.589
40. C13U A56G  0.573
41. C13U C64G  0.567
42. C13U C58G  0.554
43. C13U A56U  0.554
44. C14A U27C  0.554
45. C14A C41U  0.539
46. C14A G67U  0.532
47. C13U C41A  0.522
48. C14A A83U  0.499
49. C13U C48G  0.499
50. C14A A71G  0.499
51. C13U C85A  0.475
52. C14A A45U  0.467
53. C14A G50U  0.467
54. C13U A45G  0.465
55. C14A C32U  0.458
56. C14A G67A  0.435
57. C14G A45C  0.434
58. C14G A77G  0.415
59. C13U C48A  0.415
60. C13U C33U  0.397
61. C13G U27G  0.396
62. C13G U27A  0.391
63. C14A G73A  0.383
64. C13U U37C  0.369
65. C13U G40A  0.365
66. C13U C15G  0.356
67. C14A A70U  0.344
68. C14A U72A  0.332
69. C13U G39A  0.332
70. C13U C85U  0.332
71. C13U C85G  0.332
72. C13U C41U  0.323
73. C14G A78G  0.317
74. C14G C15A  0.312
75. C14G A83G  0.268
76. C13U C36U  0.256
77. C14A C75G  0.256
78. C13U C33G  0.252
79. C14A G35U  0.232
80. C13G G81C  0.229
81. C14A G39U  0.222
82. C14A C75A  0.208
83. C13U G31C  0.198
84. C14A G38U  0.182
85. C13G G34C  0.178
86. C14A G39A  0.177
87. C13G G53A  0.163
88. C13U G81U  0.163
89. C14A A78C  0.158
90. C13G U20C  0.158
91. C14A U72G  0.151
92. C13U G38U  0.149
93. C14A C32A  0.148
94. C13G C61A  0.148
95. C14A A43U  0.145
96. C14A G25A  0.141
97. C14A G28A  0.141
98. C14A G38C  0.141
99. C13U G38A  0.138
100. C14G A43U  0.138
101. C13U U37G  0.138
102. C13G G55C  0.135
103. C13U G31A  0.131
104. C14A G73U  0.13
105. C13G C49A  0.123
106. C13G C58G  0.119
107. C13G G40A  0.119
108. C13G U65G  0.115
109. C13G G54C  0.115
110. C14G C15U  0.111
111. C14G A78C  0.108
112. C14A C36G  0.107
113. C13G G40U  0.104
114. C13G G53U  0.102
115. C14A C49G  0.101
116. C14A G34U  0.101
117. C13G C84G  0.0978
118. C13G C86G  0.0978
119. C14A G29U  0.0966
120. C13G G31A  0.0923
121. C13G C58U  0.0898
122. C13U G34C  0.0898
123. C13G G25C  0.0875
124. C14G A45G  0.0875
125. C13G C86A  0.0811
126. C14A A83C  0.0755
127. C14A G28U  0.0733
128. C13U G29U  0.0707
129. C13U G74C  0.0627
130. C13G G54A  0.0604
131. C13G G55U  0.0583
132. C14A G35C  0.0536
133. C13G G34A  0.0536
134. C13G G35C  0.0536
135. C14G A43C  0.0504
136. C13G G35U  0.0504
137. C13G G81U  0.0475
138. C13G G35A  0.0449
139. C14A G35A  0.0426
140. C13G G17U  0.0426
141. C13G G81A  0.0426
142. C13G C64A  0.0396
143. C14A A43C  0.0396
144. C13U G39C  0.0369
145. C14A C24U  0.0361
146. C13U U37A  0.0308
147. C13G G38A  0.0302
148. C13G G38U  0.0292
149. C13G G54U  0.0282
150. C13G C64U  0.0268
151. C13U G34U  0.0268
152. C14G A77U  0
153. C14G A77C  0
154. C13G C41G  0
155. C13G C84A  0
156. C14G C18G  0
157. C14G C15G  0
158. C14G C19A  0
159. C13G G68A  0
160. C14A C18G  0
161. C14A C18U  0
162. C13G G31C  0
163. C14A A43G  0
164. C13G U20A  0
165. C13G U20G  0
166. C14A G38A  0
167. C14G A83C  0
